The values below come from patent publication US8710180B2, “VEGF-specific capture agents, compositions, and methods of using and making” (Indi Molecular, Inc., priority 2011, dated 2014).

For assay [1], the target named is T1, VEGF165 binding to Avastin® Fab (Homo sapiens, UniProt P15692).
T1 construct: biotin (chemical labelling)
T1 sequence (P15692 27-191 isoform P15692-4): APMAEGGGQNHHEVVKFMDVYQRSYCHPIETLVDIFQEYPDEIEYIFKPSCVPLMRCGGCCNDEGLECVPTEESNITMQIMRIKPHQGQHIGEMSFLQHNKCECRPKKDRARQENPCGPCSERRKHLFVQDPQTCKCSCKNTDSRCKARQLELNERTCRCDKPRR
Nature of the assay: competitive ELISA, inhibition of VEGF165 binding to Avastin Fab. Particulars: 10 nM biotinylated VEGF165, Avastin Fab coated plate. As for the experimental part: Using an excitation wavelength of 535 nm, fluorescent emission at 595 nm was recorded by Beckman Coulter DTX880 photometer (Brea, Calif.) as a function of capture agent concentration. The titration curves were fit using a four-parameter regression curve fitting program (Origin 8.5, Northampton, Mass.). Concentrations of peptides corresponding to the midpoint absorbance of the titration curve were calculated and used as the IC50 values.
(In an ELISA, binding on a coated surface is turned into a signal by an enzyme label.)

For assay [2], the target named is T2, VEGF165 (Homo sapiens, UniProt P15692).
T2 construct: purchased Abcam ab56620
T2 sequence (P15692 27-191 isoform P15692-4): T1 sequence (P15692 27-191 isoform P15692-4)
The experiment in a line: direct solid-phase ELISA, binding of capture agents to VEGF165. Particulars: immobilized VEGF165; KD estimated as concentration at half-maximal fluorescent emission. As for the experimental part: The equilibrium dissociation constant (KD) for the capture agents may be estimated as the concentration corresponding to half-maximal fluorescent emission. Assaying multiple capture agents in parallel permits relative and absolute comparison of in vitro binding.
After washing each well with PBS (3×), the plate was filled with 5% non-fat dry milk in TBS (25 mM Tris, 150 mM NaCl, pH 7.25) containing 0.1% (v/v) Triton X-100 and blocked for 2 hours at 25° C. […] After washing all microwells with TBS/0.1%(v/v) Triton X-100 (5×), 0.1 μg/mL Streptavidin Poly-HRP conjugate (Pierce, Ill.) in TBS/0.1%(v/v) Triton X-100 was incubated for 30 minutes at 25° C. The plate was aspirated and washed with TBS/0.1% (v/v) Triton X-100 (5×), followed by TBS (5×), and then developed by adding QuantaRed^TM Enhanced Chemifluorescent HRP Substrate. Using an excitation wavelength of 535 nm, fluorescent emission at 595 nm was recorded by Beckman Coulter DTX880 photometer (Brea, Calif.) as a function of capture agent concentration. The titration curves were fit using a four-parameter regression curve fitting program (Origin 8.5, Northampton, Mass.).

Assay [3] deals with T2, VEGF165. The experiment in a line: pull-down (immunoprecipitation) of VEGF165 from spiked buffer or human serum, Western blot and silver stain. The settings on record: VEGF165-spiked buffer (B) vs 25% human serum (S). The format is binding. The method, then:
A pull-down assay was used to assess capture agent specificity for VEGF by measuring the ability of the capture agents to purify VEGF165 from buffer or complex media such as human serum. Capture agents were immobilized on streptavidin-functionalized magnetic beads, and the resultant resins were panned with VEGF165-spiked serum or buffer.
Pull-down detection of VEGF165 was performed using a modified immunoprecipitation technique that incorporated capture agents rather than antibody. […] A vehicle-only control (0.1% DMSO, v/v) accompanied each sample.
Proteins were captured by BSA-blocked Dynabeads® M-280 Streptavidin (Invitrogen, #112-05D) under rotation at 4° C. for 4 hours (100 μL of 50% slurry per pull-down condition). Beads were separated from the serum or buffer matrix by application of the DynaMag™-Spin magnet (Invitrogen, #123-20D), and captured proteins were eluted from the beads in 30 μL of reducing Laemmli buffer. Eluted samples were subjected to 12% SDS-PAGE separation at 200 V for 30 minutes in 1×TGS (25 mM Tris, 192 mM Glycine, 0.1% SDS (w/v), pH 8.3). Samples were subsequently electrophoretically transferred to a nitrocellulose membrane in 25 mM Tris, 192 mM Glycine, pH 8.3, containing 20% (v/v) methanol (Bio-Rad Laboratories, Hercules, Calif.) at 100 V for 45 minutes. […]
Background: In western blotting, separated proteins are transferred to a membrane and probed.

One may read the IC50 as the concentration that gives 50% inhibition. A lower IC50 goes with higher potency. One may read the Kd as the concentration at which binding is half-saturated. With “X-VEPNCDIHVMWEWECFERL-Tz4-lfrew-Tz4-eeird [Triligand 2]”, the IC50 in assay [1] was determined as 400 nM. Further, the Kd in assay [2] was approximately 15 nM. Besides, the “capture of VEGF in buffer vs. serum” value in assay [3] was “captures equivalent amounts of VEGF in buffer and serum”.
